Data taken from US20140274782A1, “AFFINITY REAGENTS AND METHODS FOR DETECTION, PURIFICATION, AND PROTEOMIC ANALYSIS OF METHYLATED PROTEINS” (The Board of Trustees of the Leland Stanford Junior …, priority 2013, published 2014).

T1: G9a and GLP (Homo sapiens, UniProt Q96KQ7+Q9H9B1)
T1 sequence (Q96KQ7 2-1210 limits assumed): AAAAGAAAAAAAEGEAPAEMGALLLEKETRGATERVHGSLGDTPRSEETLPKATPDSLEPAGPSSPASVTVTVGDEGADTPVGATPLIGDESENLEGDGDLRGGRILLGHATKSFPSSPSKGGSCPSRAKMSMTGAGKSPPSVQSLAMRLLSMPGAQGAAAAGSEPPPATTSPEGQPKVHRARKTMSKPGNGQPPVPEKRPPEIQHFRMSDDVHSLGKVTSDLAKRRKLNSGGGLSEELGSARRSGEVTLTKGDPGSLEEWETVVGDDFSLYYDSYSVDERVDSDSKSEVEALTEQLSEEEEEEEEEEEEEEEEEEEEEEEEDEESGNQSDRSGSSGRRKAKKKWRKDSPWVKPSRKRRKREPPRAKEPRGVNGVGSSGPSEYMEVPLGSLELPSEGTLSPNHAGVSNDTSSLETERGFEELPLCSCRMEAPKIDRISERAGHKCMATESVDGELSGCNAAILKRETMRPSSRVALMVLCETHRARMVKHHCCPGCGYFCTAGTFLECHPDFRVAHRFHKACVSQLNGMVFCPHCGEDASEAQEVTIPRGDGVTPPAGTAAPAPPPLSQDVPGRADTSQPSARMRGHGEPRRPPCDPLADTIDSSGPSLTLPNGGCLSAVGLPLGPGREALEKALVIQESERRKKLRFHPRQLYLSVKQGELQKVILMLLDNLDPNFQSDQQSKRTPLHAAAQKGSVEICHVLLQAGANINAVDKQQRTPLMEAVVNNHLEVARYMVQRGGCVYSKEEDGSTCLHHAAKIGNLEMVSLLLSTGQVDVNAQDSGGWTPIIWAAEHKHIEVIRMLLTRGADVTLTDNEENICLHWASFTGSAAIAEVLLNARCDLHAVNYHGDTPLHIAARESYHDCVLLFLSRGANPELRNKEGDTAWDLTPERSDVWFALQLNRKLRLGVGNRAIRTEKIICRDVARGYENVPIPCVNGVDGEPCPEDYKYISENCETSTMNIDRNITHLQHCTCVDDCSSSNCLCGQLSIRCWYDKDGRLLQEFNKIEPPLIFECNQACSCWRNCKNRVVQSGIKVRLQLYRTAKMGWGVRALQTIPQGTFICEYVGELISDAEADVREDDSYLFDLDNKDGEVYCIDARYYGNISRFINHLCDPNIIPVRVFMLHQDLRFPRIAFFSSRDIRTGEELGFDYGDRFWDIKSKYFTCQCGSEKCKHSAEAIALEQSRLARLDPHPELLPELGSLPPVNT
T1 sequence (Q9H9B1 2-1298 limits assumed): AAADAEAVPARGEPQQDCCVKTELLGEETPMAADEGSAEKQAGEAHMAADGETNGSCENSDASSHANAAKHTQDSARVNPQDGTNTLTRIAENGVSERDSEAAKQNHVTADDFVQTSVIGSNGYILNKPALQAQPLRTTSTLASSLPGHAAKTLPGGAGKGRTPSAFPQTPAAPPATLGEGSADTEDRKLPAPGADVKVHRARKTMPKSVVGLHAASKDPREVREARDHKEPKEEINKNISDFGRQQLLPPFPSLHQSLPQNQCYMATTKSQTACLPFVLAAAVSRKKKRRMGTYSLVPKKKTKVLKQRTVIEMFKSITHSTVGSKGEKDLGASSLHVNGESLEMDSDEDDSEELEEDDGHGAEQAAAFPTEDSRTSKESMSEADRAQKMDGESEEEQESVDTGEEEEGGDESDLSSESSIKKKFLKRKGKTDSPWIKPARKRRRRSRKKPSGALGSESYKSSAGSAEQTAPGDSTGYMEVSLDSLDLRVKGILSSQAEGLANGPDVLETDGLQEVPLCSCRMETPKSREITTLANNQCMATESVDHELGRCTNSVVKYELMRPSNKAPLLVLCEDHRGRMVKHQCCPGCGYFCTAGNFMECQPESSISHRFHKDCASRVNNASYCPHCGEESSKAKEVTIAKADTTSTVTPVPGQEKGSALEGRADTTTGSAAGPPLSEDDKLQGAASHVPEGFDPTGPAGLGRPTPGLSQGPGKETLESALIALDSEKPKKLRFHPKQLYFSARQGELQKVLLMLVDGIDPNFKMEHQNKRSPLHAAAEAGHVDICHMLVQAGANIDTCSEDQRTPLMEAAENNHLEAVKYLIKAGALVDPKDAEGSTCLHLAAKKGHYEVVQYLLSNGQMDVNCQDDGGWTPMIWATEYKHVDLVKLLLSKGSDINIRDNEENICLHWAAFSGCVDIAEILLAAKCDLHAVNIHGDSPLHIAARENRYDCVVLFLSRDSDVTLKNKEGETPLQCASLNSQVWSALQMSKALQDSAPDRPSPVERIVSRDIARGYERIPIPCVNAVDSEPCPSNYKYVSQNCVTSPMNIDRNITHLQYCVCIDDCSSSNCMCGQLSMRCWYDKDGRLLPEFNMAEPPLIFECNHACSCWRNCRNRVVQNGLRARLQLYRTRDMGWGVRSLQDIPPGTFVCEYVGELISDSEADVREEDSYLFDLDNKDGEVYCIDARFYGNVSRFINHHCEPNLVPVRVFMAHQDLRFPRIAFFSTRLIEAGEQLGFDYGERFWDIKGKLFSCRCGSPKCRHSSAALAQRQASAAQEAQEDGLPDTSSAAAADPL

B1: DDX46 (protein, UniProt Q7L014 2-1031, looked up)
Probable ATP-dependent RNA …: GRESRHYRKRSASRGRSGSRSRSRSPSDKRSKRGDDRRSRSRDRDRRRERSRSRDKRRSRSRDRKRLRRSRSRERDRSRERRRSRSRDRRRSRSRSRGRRSRSSSPGNKSKKTENRSRSKEKTDGGESSKEKKKDKDDKEDEKEKDAGNFDQNKLEEEMRKRKERVEKWREEQRKKAMENIGELKKEIEEMKQGKKWSLEDDDDDEDDPAEAEKEGNEMEGEELDPLDAYMEEVKEEVKKFNMRSVKGGGGNEKKSGPTVTKVVTVVTTKKAVVDSDKKKGELMENDQDAMEYSSEEEEVDLQTALTGYQTKQRKLLEPVDHGKIEYEPFRKNFYVEVPELAKMSQEEVNVFRLEMEGITVKGKGCPKPIKSWVQCGISMKILNSLKKHGYEKPTPIQTQAIPAIMSGRDLIGIAKTGSGKTIAFLLPMFRHIMDQRSLEEGEGPIAVIMTPTRELALQITKECKKFSKTLGLRVVCVYGGTGISEQIAELKRGAEIIVCTPGRMIDMLAANSGRVTNLRRVTYVVLDEADRMFDMGFEPQVMRIVDNVRPDRQTVMFSATFPRAMEALARRILSKPIEVQVGGRSVVCSDVEQQVIVIEEEKKFLKLLELLGHYQESGSVIIFVDKQEHADGLLKDLMRASYPCMSLHGGIDQYDRDSIINDFKNGTCKLLVATSVAARGLDVKHLILVVNYSCPNHYEDYVHRAGRTGRAGNKGYAYTFITEDQARYAGDIIKALELSGTAVPPDLEKLWSDFKDQQKAEGKIIKKSSGFSGKGFKFDETEQALANERKKLQKAALGLQDSDDEDAAVDIDEQIESMFNSKKRVKDMAAPGTSSVPAPTAGNAEKLEIAKRLALRINAQKNLGIESQDVMQQATNAILRGGTILAPTVSAKTIAEQLAEKINAKLNYVPLEKQEEERQDGGQNESFKRYEEELEINDFPQTARWKVTSKEALQRISEYSEAAITIRGTYFPPGKEPKEGERKIYLAIESANELAVQKAKAEITRLIKEELIRLQNSYQPTNKGRYKVL
B2: CTNND1 (protein, UniProt O60716 1-968, looked up)
Catenin delta-1: MDDSEVESTASILASVKEQEAQFEKLTRALEEERRHVSAQLERVRVSPQDANPLMANGTLTRRHQNGRFVGDADLERQKFSDLKLNGPQDHSHLLYSTIPRMQEPGQIVETYTEEDPEGAMSVVSVETSDDGTTRRTETTVKKVVKTVTTRTVQPVAMGPDGLPVDASSVSNNYIQTLGRDFRKNGNGGPGPYVGQAGTATLPRNFHYPPDGYSRHYEDGYPGGSDNYGSLSRVTRIEERYRPSMEGYRAPSRQDVYGPQPQVRVGGSSVDLHRFHPEPYGLEDDQRSMGYDDLDYGMMSDYGTARRTGTPSDPRRRLRSYEDMIGEEVPSDQYYWAPLAQHERGSLASLDSLRKGGPPPPNWRQPELPEVIAMLGFRLDAVKSNAAAYLQHLCYRNDKVKTDVRKLKGIPVLVGLLDHPKKEVHLGACGALKNISFGRDQDNKIAIKNCDGVPALVRLLRKARDMDLTEVITGTLWNLSSHDSIKMEIVDHALHALTDEVIIPHSGWEREPNEDCKPRHIEWESVLTNTAGCLRNVSSERSEARRKLRECDGLVDALIFIVQAEIGQKDSDSKLVENCVCLLRNLSYQVHREIPQAERYQEAAPNVANNTGPHAASCFGAKKGKDEWFSRGKKPIEDPANDTVDFPKRTSPARGYELLFQPEVVRIYISLLKESKTPAILEASAGAIQNLCAGRWTYGRYIRSALRQEKALSAIADLLTNEHERVVKAASGALRNLAVDARNKELIGKHAIPNLVKNLPGGQQNSSWNFSEDTVISILNTINEVIAENLEAAKKLRETQGIEKLVLINKSGNRSEKEVRAAALVLQTIWGYKELRKPLEKEGWKKSDFQVNLNNASRSQSSHSYDDSTLPLIDRNQKSDKKPDREEIQMSNMGSNTKSLDNNYSTPNERGDHNRTLDRSGDLGDMEPLKGTTPLMQDEGQESLEEELDVLVLDDEGGQVSYPSMQKI
B3: CHEK1 (protein, UniProt O14757 1-476, looked up)
Serine/threonine-protein …: MAVPFVEDWDLVQTLGEGAYGEVQLAVNRVTEEAVAVKIVDMKRAVDCPENIKKEICINKMLNHENVVKFYGHRREGNIQYLFLEYCSGGELFDRIEPDIGMPEPDAQRFFHQLMAGVVYLHGIGITHRDIKPENLLLDERDNLKISDFGLATVFRYNNRERLLNKMCGTLPYVAPELLKRREFHAEPVDVWSCGIVLTAMLAGELPWDQPSDSCQEYSDWKEKKTYLNPWKKIDSAPLALLHKILVENPSARITIPDIKKDRWYNKPLKKGAKRPRVTSGGVSESPSGFSKHIQSNLDFSPVNSASSEENVKYSSSQPEPRTGLSLWDTSPSYIDKLVQGISFSQPTCPDHMLLNSQLLGTPGSSQNPWQRLVKRMTRFFTKLDADKSYQCLKETCEKLGYQWKKSCMNQVTISTTDRRNNKLIFKVNLLEMDDKILVDFRLSKGDGLEFKRHFLKIKGKLIDIVSSQKIWLPAT
B4: CSRP2 (protein, UniProt Q16527 1-193, looked up)
Cysteine and glycine-rich …: MPVWGGGNKCGACGRTVYHAEEVQCDGRSFHRCCFLCMVCRKNLDSTTVAIHDEEIYCKSCYGKKYGPKGYGYGQGAGTLNMDRGERLGIKPESVQPHRPTTNPNTSKFAQKYGGAEKCSRCGDSVYAAEKIIGAGKPWHKNCFRCAKCGKSLESTTLTEKEGEIYCKGCYAKNFGPKGFGYGQGAGALVHAQ

How the values were obtained:
[1] = tested on: 3×MBT domain of L3MBTL1; experiment: Triple SILAC pull-down, 3xMBT/3xMBTD355N ratio (cytoplasmic, nuclear and chromatin fractions of 293T cells); assay type: binding, human; details: for 3xMBT/D355N UNC Heavy: experiment with UNC0638 in heavy SILAC media; for 3xMBT/D355N UNC Light: experiment with UNC0638 in light SILAC media;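 for all read-outs here: proteins quantified with MaxQuant, requiring at least two unique peptides and quantification in both label directions, normalized to the mean of proteins from a digested loading control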
[2] = target: T1, G9a and GLP; experiment: Triple SILAC pull-down after UNC0638 treatment of 293T cells, DMSO/UNC0638 ratio of protein captured by 3×MBT; assay type: cell-based; set-up: endogenous in cells; host or cells: HEK 293T; details: for Relative to UNC0638 UNC Heavy: UNC0638 in heavy SILAC media; for Relative to UNC0638 UNC Light: UNC0638 in light SILAC media; for Relative to UNC0638 Average: average of UNC Light and UNC Heavy experiments;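 for all read-outs here: mass spectrometry (Q-Exactive) SILAC quantitation, DMSO/UNC0638 ratio computed after subtracting 3×MBTD355N mutant pull-down background, only proteins with at least twofold 3×MBT over mutant signal considered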
[3] = SILAC ratio, pull-down 3xMBT vs 3xMBTD355N
[4] = SILAC ratio DMSO/UNC0638 of protein pulled down with 3xMBT
[5] = SILAC ratio 3xMBT vs 3xMBTD355N pull-down, 293T cells, all values in log base 2
[6] = SILAC ratio DMSO relative to UNC0638, pull-down with 3xMBT, all values in log base 2

Molecule	3xMBT/D355N UNC Heavy [1, 3] [log base 2]	3xMBT/D355N UNC Light [1, 3] [log base 2]	Relative to UNC0638 UNC Heavy [2, 4] [log base 2]	Relative to UNC0638 UNC Light [2, 4] [log base 2]	Relative to UNC0638 Average [2] [log base 2]	Candidate G9a/GLP target ([2]; reduced association with 3xMBT after UNC0638 treatment)	3xMBT/D355N UNC Heavy [1, 5] [log base 2]	3xMBT/D355N UNC Light [1, 5] [log base 2]	Relative to UNC0638 UNC Light [2, 6] [log base 2]	Relative to UNC0638 Average ([2]; all values in log base 2) [log base 2]	Relative to UNC0638 UNC Heavy [2, 6] [log base 2]
B1	2.10	2.67	0.53	0.33	0.43	✓	–	–	–	–	–
B2	–	–	–	–	–	–	0.67	2.07	−0.49	−0.49	–
B3	–	–	–	–	–	–	0.09	0.46	−0.99	−0.99	–
B4	–	–	–	–	–	–	1.27	1.96	−0.49	−0.54	−0.58
